{
  "source": "patent US10577428B2",
  "about": "“Anti-factor XI monoclonal antibodies and methods of use thereof” (Oregon Health & Science University, priority 2007, dated 2020)",
  "molecules": {"B1": {"name": "aXIMab: neutralizing murine IgG/kappa anti-human FXI monoclonal antibody from hybridoma 1A6; binds A3 domain; VH SEQ ID NO:3, VL SEQ ID NO:5 (antibody, listed as Mus musculus, V domains shown)", "VH": "QVTLKESGPGILKPSQTLSLTCSFSGFSLSTSGMGVGWIRQPSGKGLEWLAHIWWDDDKYYNPSLKSQLTISKDTSRNQVFLKITSVDAADTATYYCARKRSSVVAHYYAMDYWGQGTSVTVSS", "VL": "DIVLTQSPASLAVSLGQRATISCKASQSVDYDGDSYLNWYQQKPGQPPKLLIYAASNLESGIPARFSGSGSGTDFTLNIHPVEEEDAATYYCQQSNGDPWTFGGGTKLEIK"}},
  "key": {"[1]": {"tested_on": "FXI", "assay": "FXI procoagulant activity, aPTT and PT after single i.v. bolus in baboons", "format": "in vivo, baboon", "procedure": "The maximum achievable prolongation of the aPTT was about 2.5 fold. FXI:Ag was measured by ELISA using goat anti-human FXI polyclonal capture and detection (horseradish peroxidase conjugated [HRP]) antibodies (Affinity Biologicals, Hamilton, Ontario), which also recognized baboon FXI and its complex with aXIMab. A standard curve was constructed with serial dilutions of NBP, and FXI concentrations were determined in percentage of NBP. Western blots for FXI were performed by size fractionation of 1 μl samples of plasma under non-reducing conditions on 7.5% polyacrylamide-SDS gels, followed by transfer to PVDF membranes. Detection was with a goat-anti-human FXI polyclonal antibody conjugated to HRP and chemiluminescence.\nThe anticoagulant effect (aPTT) was monitored daily, and thrombosis experiments were performed while the FXI procoagulant activity in the circulating blood was reduced by ≥99%, as assessed by comparing the clotting times to a standard curve generated with FXI deficient human plasma (George King Bio-Medical)."}, "[2]": {"tested_on": "normal human plasma (NHP)", "assay": "aPTT and PT in normal human plasma in vitro", "format": "biochemical", "conditions": "0-40 nM"}, "[3]": {"tested_on": "baboon FXI in plasma", "assay": "Western blot of baboon / non-human primate plasma", "format": "binding", "from_the_text": "Results from a Western Blot study corroborating that anti-factor XI monoclonal antibody 1A6 recognizes Factor XI in human and non-human primate plasma is shown in FIG. 7A."}, "[4]": {"tested_on": "baboons (Papio anubis)", "assay": "Vascular graft occlusion studies, collagen coated 2 mm i.d. grafts, high arterial shear", "format": "in vivo, baboon (Papio anubis)", "conditions": "2 mm i.d. grafts", "procedure": "Thrombus formation was initiated within the baboon AV shunt by interposing a thrombogenic segment of prosthetic vascular graft (ePTFE, WL Gore & Co., Flagstaff, Ariz.), as previously described (Hanson et al. (1993) J. Clin. Invest. 92:2003-2012). To consistently trigger platelet-dependent thrombus formation, the clinical graft segments were coated with immobilized collagen. Twenty mm long grafts having internal diameters (i.d.) of either 2 or 4 mm were filled with equine type I collagen (1 mg/ml; Nycomed Arzenmittel, Munich, Germany) for 15 min, and then dried overnight under sterile airflow. This method produced a uniform collagen coating within the graft lumen as determined by scanning electron microscopy (FIGS. 1B and 1C). The thrombogenic collagen-coated grafts were then incorporated between segments of silicon rubber tubing, and deployed into the AV shunts (FIG. 1A). The grafts were exposed to blood for up to 60 min. During each experiment, the blood flow rate through the graft was restricted to 100 ml/min by clamping the proximal silicone rubber shunt segment, thereby producing a mean wall shear rate (MWSR) in the 4 mm grafts of 265 s^−1, while in the 2 mm grafts the initial MWSR was 2120 s^−1. Flow rates were continuously monitored using an ultrasonic flow meter (Transonics Systems, Ithaca, N.Y.). […] Baseline blood flow was restored through the permanent shunt after each experiment. In the 2 mm diameter grafts blood flow rates progressively declined due to thrombus formation. The grafts were removed from the AV shunts when the flow rate fell from 100 ml/min to below 20 ml/min, signaling imminent occlusion. The time from initiation of blood flow to graft removal (<20 ml/min blood flow) was taken as the occlusion time.\nOcclusion studies were performed using 10 mm long 2 mm i.d. collagen coated devices which produced high arterial shear rates (2120 s^−1 at 100 ml/min clamped blood flow). Accumulation of labeled platelets onto 2 mm thrombogenic grafts were measured in 3-min intervals using a gamma scintillation camera. Flow was maintained at 100 ml/min by proximal clamping for as long as possible, and then allowed to decrease as the propagating thrombus began to occlude the device. A final blood flow rate of 20 ml/min was used as a cutoff for occlusion, since a fully occlusive thrombi and lack of blood flow through the device could lead to occlusion of the shunt and a significant loss of blood for the animals.\nSince aspirin is a less antihemostatic agent than heparin, and it is often included in the standard treatment of arterial-type platelet-dependent thrombosis, ASA was used in the current studies with the occlusion-prone 2 mm i.d. grafts as a long-acting positive control. ASA (32 mg/kg) was administered orally 2-4 h before each thrombosis experiment, as described previously (Hanson et al. (1985) J. Clin. Invest. 75:1591-1599). Four weeks were allowed for washout of each aXIMab and ASA before performing new experiments in the same animal."}, "[5]": {"target": "Prekallikrein (PK) (Homo sapiens, UniProt P03952)", "sequence (P03952 20-638)": "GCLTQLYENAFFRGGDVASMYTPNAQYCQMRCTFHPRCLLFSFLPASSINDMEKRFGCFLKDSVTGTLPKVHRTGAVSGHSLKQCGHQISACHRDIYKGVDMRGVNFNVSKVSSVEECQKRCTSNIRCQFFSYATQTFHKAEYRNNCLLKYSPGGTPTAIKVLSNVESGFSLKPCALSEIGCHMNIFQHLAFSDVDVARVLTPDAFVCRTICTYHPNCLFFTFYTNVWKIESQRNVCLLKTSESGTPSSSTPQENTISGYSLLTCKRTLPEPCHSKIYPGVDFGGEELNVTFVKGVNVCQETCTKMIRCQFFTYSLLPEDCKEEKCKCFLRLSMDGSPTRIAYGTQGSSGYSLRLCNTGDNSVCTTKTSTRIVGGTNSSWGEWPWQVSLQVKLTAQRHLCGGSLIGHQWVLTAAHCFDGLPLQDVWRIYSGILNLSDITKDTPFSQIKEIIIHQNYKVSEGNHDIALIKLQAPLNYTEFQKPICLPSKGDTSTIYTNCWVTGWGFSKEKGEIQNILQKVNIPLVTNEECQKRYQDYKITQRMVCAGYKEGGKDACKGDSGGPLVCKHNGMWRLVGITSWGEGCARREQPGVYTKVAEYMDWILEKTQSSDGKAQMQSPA", "assay": "Western blot binding to prekallikrein", "procedure": "Comparative binding studies for monoclonal antibody 1A6 were conducted using FXI, Prekallikrein (PK), and FXI/PK chimeras involving either the substitution FXI domains with PK domains (FIG. 9) or the substitution of PK domains with FXI domains (FIG. 10)."}},
  "note": "Entries after “also recorded” stand apart in the source; their conditions may differ. Where two headings read alike, the source gives them in different places.",
  "data": [
    {"molecule": "B1", "values": [
      {"measurement": "day by which all clotting times normalized", "setting": "[1]; 2 mg/kg i.v. bolus, one-stage clotting assay", "result": "≤ 11", "unit": "days"},
      {"measurement": "FXI procoagulant activity inhibited", "setting": "[1]; 1 hr after infusion, 2 mg/kg i.v. bolus, 4 baboons, range 98.8-99.5%", "result": 99.0, "unit": "%"},
      {"measurement": "PT", "setting": "[1]; after aXIMab administration, n=11, PBS vehicle 9.0±0.1 sec", "result": "9.1 ± 0.1", "unit": "s"},
      {"measurement": "aPTT", "setting": "[1]; after aXIMab administration, control 30.5±0.7 sec", "result": "65.6 ± 2.0", "unit": "s"},
      {"measurement": "PT, differences between groups", "setting": "[1]; all baboons", "result": "no differences"},
      {"measurement": "prothrombin time (PT)", "setting": "[2]", "result": "without affecting"},
      {"measurement": "activated partial thromboplastin time (aPTT)", "setting": "[2]; concentration-dependent", "result": "prolonged"},
      {"measurement": "recognition of FXI on Western blot", "setting": "[3]", "result": "single band at 160 kDa"},
      {"measurement": "recognition of FXI on Western blot", "setting": "[3]; listed as 1A6", "result": "recognizes"},
      {"measurement": "initial platelet accumulation rate versus vehicle", "setting": "[4]", "result": "similar"},
      {"measurement": "thrombus stability", "setting": "[4]; 2120 s^-1", "result": "unstable; also recorded: profoundly reduced"},
      {"measurement": "Number occluded", "setting": "[4]; 60 min", "result": "0/5"},
      {"measurement": "graft occlusion", "setting": "[4]; 60 min-long studies (FIG. 5)", "result": "did not occlude the grafts"},
      {"measurement": "time after initiation of blood perfusion when growth rate of platelet thrombus was reduced", "setting": "[4]; all treated animals", "result": "12 to 15", "unit": "min"},
      {"measurement": "Embolic events per experiment", "setting": "[4]; mean ± SEM", "result": "6.6 ± 0.9"},
      {"measurement": "Fibrin deposition", "setting": "[4]; mean ± SEM, control 0.30 ± 0.04", "result": "0.18 ± 0.02", "unit": "mg"},
      {"measurement": "grafts remained patent", "setting": "[4]; over 60 min", "result": "5 of 5"},
      {"measurement": "binding to PK", "setting": "[5]", "result": "did not bind"}
    ]}
  ]
}
